Our source for the IC50 of inhibition of adhesion of α2K562 transfectants to immobilised collagen I (blocks collagen I with α2β1), dose-response of Vixapatin values is PMC3496993.

This assay has as its target α2β1 integrin on K562 cells transfected with the α2 integrin subunit (not stated | human (endogenous in K562)) (UniProt P17301).
Chain of UniProt P17301 (P17301 30-1181, chain 1 of 2): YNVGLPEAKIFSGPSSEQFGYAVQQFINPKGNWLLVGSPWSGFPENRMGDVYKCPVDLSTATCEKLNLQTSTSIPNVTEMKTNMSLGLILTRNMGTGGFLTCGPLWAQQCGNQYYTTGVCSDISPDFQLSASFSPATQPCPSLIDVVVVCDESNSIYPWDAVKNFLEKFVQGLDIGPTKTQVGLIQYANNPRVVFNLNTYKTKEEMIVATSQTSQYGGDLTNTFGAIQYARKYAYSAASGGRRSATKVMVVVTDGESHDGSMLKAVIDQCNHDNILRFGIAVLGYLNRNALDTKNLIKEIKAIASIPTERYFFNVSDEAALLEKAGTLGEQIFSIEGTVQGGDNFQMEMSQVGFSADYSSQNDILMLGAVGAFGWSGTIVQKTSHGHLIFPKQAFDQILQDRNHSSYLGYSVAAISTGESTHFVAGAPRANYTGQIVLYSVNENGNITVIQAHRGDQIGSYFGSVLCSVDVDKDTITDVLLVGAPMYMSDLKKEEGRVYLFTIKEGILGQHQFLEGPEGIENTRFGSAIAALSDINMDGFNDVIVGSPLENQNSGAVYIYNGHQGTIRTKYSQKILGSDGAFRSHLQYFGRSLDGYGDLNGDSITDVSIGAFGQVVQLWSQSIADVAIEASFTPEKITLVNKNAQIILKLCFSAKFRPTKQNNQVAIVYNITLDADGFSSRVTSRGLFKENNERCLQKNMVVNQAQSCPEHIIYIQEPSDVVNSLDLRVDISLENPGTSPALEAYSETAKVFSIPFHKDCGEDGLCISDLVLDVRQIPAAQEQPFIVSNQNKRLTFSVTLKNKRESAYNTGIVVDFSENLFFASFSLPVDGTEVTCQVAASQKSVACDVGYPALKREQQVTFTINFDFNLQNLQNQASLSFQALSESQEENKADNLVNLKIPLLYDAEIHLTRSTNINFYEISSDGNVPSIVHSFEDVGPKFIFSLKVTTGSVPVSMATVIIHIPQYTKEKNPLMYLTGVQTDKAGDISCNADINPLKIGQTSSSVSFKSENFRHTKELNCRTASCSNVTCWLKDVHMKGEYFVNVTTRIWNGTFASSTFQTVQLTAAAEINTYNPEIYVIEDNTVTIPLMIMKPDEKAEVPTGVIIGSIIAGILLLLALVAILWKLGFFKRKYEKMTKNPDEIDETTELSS
Chain of UniProt P17301 (P05556 21-798, chain 2 of 2, further chain): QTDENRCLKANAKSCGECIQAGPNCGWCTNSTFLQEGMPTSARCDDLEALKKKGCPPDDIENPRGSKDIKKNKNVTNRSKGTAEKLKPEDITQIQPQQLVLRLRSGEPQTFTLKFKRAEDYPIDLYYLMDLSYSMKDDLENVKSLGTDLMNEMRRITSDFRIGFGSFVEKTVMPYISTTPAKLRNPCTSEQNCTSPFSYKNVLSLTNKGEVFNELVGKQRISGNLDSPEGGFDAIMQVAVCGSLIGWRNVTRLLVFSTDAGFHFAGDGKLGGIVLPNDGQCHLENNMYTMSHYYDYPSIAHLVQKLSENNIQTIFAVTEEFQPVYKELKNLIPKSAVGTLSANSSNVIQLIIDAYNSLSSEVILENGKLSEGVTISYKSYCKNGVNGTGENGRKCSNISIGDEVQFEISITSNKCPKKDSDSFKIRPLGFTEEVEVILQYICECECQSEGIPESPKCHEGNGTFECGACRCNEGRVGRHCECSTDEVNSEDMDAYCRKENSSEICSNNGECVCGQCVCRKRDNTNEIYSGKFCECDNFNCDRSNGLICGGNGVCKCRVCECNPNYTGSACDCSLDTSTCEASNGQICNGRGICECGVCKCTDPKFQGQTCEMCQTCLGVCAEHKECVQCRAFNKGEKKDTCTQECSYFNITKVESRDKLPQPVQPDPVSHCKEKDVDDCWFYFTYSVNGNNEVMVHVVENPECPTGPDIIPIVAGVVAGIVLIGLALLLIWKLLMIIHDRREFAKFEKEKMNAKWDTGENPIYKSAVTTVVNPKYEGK

Take “Vixapatin (VP12), C-type lectin-like protein from Vipera xantina palestinae venom (complex)”: the IC50 of inhibition of adhesion of α2K562 transfectants to immobilised collagen I (blocks collagen I with α2β1), dose-response of Vixapatin is 3.2 nM.
